Results as given in patent publication US20240117018A1.

How the values were obtained:
Assay in all cases: cell-based or functional assay
[1] = target: HIV-1 Env pseudovirus CNE17 (HIV-1)
[2] = target: HIV-1 Env pseudovirus HIV-0013095-2.11 (HIV-1)
[3] = target: HIV-1 Env pseudovirus Q842.d12 (HIV-1)
[4] = target: HIV-1 Env pseudovirus SC422661.8 (HIV-1)
[5] = target: HIV-1 Env pseudovirus ZM214M.PL15 (HIV-1)
[6] = target: HIV-1 Env pseudovirus 1006_11_C3_1601 (HIV-1)
[7] = target: HIV-1 Env pseudovirus CNE19 (HIV-1)
[8] = target: HIV-1 Env pseudovirus PVO.4 (HIV-1)
[9] = target: HIV-1 Env pseudovirus Ce1176_A3 (HIV-1)
[10] = target: HIV-1 Env pseudovirus Du156.12 (HIV-1)
[11] = target: HIV-1 Env pseudovirus WITO4160.33 (HIV-1)
[12] = target: HIV-1 Env pseudovirus Ce2060_G9 (HIV-1)
[13] = target: HIV-1 Env pseudovirus QH0692.42 (HIV-1)
[14] = target: HIV-1 Env pseudovirus Q23.17 (HIV-1)
[15] = target: HIV-1 Env pseudovirus 7030102001E5(Rev-) (HIV-1)
[16] = target: HIV-1 Env pseudovirus Du172.17 (HIV-1)
[17] = target: HIV-1 Env pseudovirus CAAN5342.A2 (HIV-1)
[18] = target: HIV-1 Env pseudovirus ZM233M.PB6 (HIV-1)
[19] = target: HIV-1 Env pseudovirus 3016.v5.c45 (HIV-1)
[20] = target: HIV-1 Env pseudovirus 6545.v4.c1 (HIV-1)
[21] = target: HIV-1 Env pseudovirus R2184.c04 (HIV-1)
[22] = target: HIV-1 Env pseudovirus 3817.v2.c59 (HIV-1)
[23] = target: HIV-1 Env pseudovirus C3347.c11 (HIV-1)

## N49P7.2 (antibody)
[1]
  IC50: 0.376 µg/mL
  IC80: 1.24 µg/mL
  MPI: 100
[2]
  IC50: 0.183 µg/mL
  IC80: 0.931 µg/mL
  MPI: 97
[3]
  IC50: 0.045 µg/mL
  IC80: 0.2 µg/mL
  MPI: 100
[4]
  IC50: 0.119 µg/mL
  IC80: 0.564 µg/mL
  MPI: 100
[5]
  IC50: 0.559 µg/mL
  IC80: 4.53 µg/mL
  MPI: 100
[6]
  IC50: 0.085 µg/mL
  IC80: 0.237 µg/mL
  MPI: 100
[7]
  IC50: 0.033 µg/mL
  IC80: 0.129 µg/mL
  MPI: 100
[8]
  IC50: 0.237 µg/mL
  IC80: 0.831 µg/mL
  MPI: 100
[9]
  IC50: 0.332 µg/mL
  IC80: 1.08 µg/mL
  MPI: 100
[10]
  IC50: 0.058 µg/mL
  IC80: 0.21 µg/mL
  MPI: 100
[11]
  IC50: 0.051 µg/mL
  IC80: 0.215 µg/mL
  MPI: 100
[12]
  IC50: 0.821 µg/mL
  IC80: 2.81 µg/mL
  MPI: 100
[13]
  IC50: 1.26 µg/mL
  IC80: 4.42 µg/mL
  MPI: 100
[14]
  IC50: 0.051 µg/mL
  IC80: 0.2 µg/mL
  MPI: 100
[15]
  IC50: 0.313 µg/mL
  IC80: 1.03 µg/mL
  MPI: 100
[16]
  IC50: 0.29 µg/mL
  IC80: 1.08 µg/mL
  MPI: 100
[17]
  IC50: 0.809 µg/mL
  IC80: 2.81 µg/mL
  MPI: 100
[18]
  IC50: 0.475 µg/mL
  IC80: 2.14 µg/mL
  MPI: 99

## VRC01 (antibody)
[19]
  IC50 (Titer in TZM.bl cells): 0.16 µg/mL
  IC80 (Titer in TZM.bl cells): 0.42 µg/mL
[2]
  IC50 (Titer in TZM.bl cells): 0.11 µg/mL
  IC80 (Titer in TZM.bl cells): 0.33 µg/mL
[3]
  IC50 (Titer in TZM.bl cells): 0.03 µg/mL
  IC80 (Titer in TZM.bl cells): 0.096 µg/mL
[4]
  IC50 (Titer in TZM.bl cells): 0.08 µg/mL
  IC80 (Titer in TZM.bl cells): 0.265 µg/mL
[5]
  IC50 (Titer in TZM.bl cells): 0.44 µg/mL
  IC80 (Titer in TZM.bl cells): 2.6 µg/mL
[6]
  IC50 (Titer in TZM.bl cells): 0.15 µg/mL
  IC80 (Titer in TZM.bl cells): 0.39 µg/mL
[20]
  IC50 (Titer in TZM.bl cells): > 50 µg/mL
  IC80 (Titer in TZM.bl cells): > 50 µg/mL
[8]
  IC50 (Titer in TZM.bl cells): 0.22 µg/mL
  IC80 (Titer in TZM.bl cells): 1.2 µg/mL
[9]
  IC50 (Titer in TZM.bl cells): 2.25 µg/mL
  IC80 (Titer in TZM.bl cells): 8.1 µg/mL
[10]
  IC50 (Titer in TZM.bl cells): 0.09 µg/mL
  IC80 (Titer in TZM.bl cells): 0.193 µg/mL
[11]
  IC50 (Titer in TZM.bl cells): 0.15 µg/mL
  IC80 (Titer in TZM.bl cells): 0.41 µg/mL
[12]
  IC50 (Titer in TZM.bl cells): 0.29 µg/mL
  IC80 (Titer in TZM.bl cells): 1.48 µg/mL
[13]
  IC50 (Titer in TZM.bl cells): 1.5 µg/mL
  IC80 (Titer in TZM.bl cells): 4.8 µg/mL
[14]
  IC50 (Titer in TZM.bl cells): 0.09 µg/mL
  IC80 (Titer in TZM.bl cells): 0.261 µg/mL
[15]
  IC50 (Titer in TZM.bl cells): 0.54 µg/mL
  IC80 (Titer in TZM.bl cells): 2.08 µg/mL
[16]
  IC50 (Titer in TZM.bl cells): > 50 µg/mL
  IC80 (Titer in TZM.bl cells): > 50 µg/mL
[21]
  IC50 (Titer in TZM.bl cells): 0.08 µg/mL
  IC80 (Titer in TZM.bl cells): 0.32 µg/mL
[22]
  IC50 (Titer in TZM.bl cells): > 50 µg/mL
  IC80 (Titer in TZM.bl cells): > 50 µg/mL
[17]
  IC50 (Titer in TZM.bl cells): 0.82 µg/mL
  IC80 (Titer in TZM.bl cells): 2.8 µg/mL
[18]
  IC50 (Titer in TZM.bl cells): 2 µg/mL
  IC80 (Titer in TZM.bl cells): 9.3 µg/mL
[23]
  IC50 (Titer in TZM.bl cells): 0.17 µg/mL
  IC80 (Titer in TZM.bl cells): 0.58 µg/mL
